Numbering of substitutions follows the chain as printed. Values joined by “and” are separate entries in the source; they are usually repeats but may differ in a detail not shown here. Equal entries are not always repeated. One block for each binder: values may come before it.
Legend:
[1] = biological target: T1, recombinant purified CD123-Fc fusion protein (Bio-Techne/R&D Systems) (human, UniProt P26951 19-305); experiment: BLI, CD123-Fc on anti-human IgG Fc capture sensors; SD 4.3
T1 construct: Bought; also called Fc-fusion of the CD123 antigen; recombinant CD123
T1 sequence: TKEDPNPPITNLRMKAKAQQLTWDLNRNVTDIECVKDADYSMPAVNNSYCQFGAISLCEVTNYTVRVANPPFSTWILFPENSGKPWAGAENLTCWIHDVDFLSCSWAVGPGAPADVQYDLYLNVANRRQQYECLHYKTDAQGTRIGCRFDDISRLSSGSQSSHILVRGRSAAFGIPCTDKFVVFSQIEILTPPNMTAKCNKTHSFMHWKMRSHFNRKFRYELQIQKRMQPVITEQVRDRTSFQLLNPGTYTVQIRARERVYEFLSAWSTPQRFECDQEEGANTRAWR
Description: (§1) To determine the kinetics of binding of humanized 1D2-5C8var1 variants to CD123, recombinant purified CD123-Fc fusion protein (Bio-Techne/R&D Systems) was loaded to a density of 1 nm onto anti-human IgG Fc Capture sensors (using a concentration of 5 μg/ml) for an Octet Red96e (Sartorius) instrument. Different sensors were then dipped in different concentrations of humanized 1D2-5C8var1 variants, starting at 50 nM and two-fold dilutions thereof; dilutions were made in 10× kinetic buffer (10×KB) provided by the supplier. From the obtained sensorgrams, the kinetic association- and dissociation rate constants were determined by curve fitting. The association- and dissociation rate constants, when fitting was possible, were used to calculate the affinity of the humanized 1D2-5C8var1 variants for binding to CD123. […] For reference, the non-humanized (parental) 1D2 was included in these experiments.

[2] = biological target: T1, recombinant purified CD123-Fc fusion …; experiment: BLI, CD123-Fc on anti-human IgG Fc capture sensors, Octet Red96e
Description: as §1

[3] = biological target: T2, human CD123 expressed on cells (human, UniProt P26951 19-378); experiment: cell-based or functional assay
[4] = biological target: T1, recombinant purified CD123-Fc fusion …; experiment: BLI, CD123-Fc on anti-human IgG Fc capture sensors; SD 0.7
Description: as §1

BSA = biological target: T3, BSA (bovine, UniProt P02769); experiment: ELISA, wells coated with 1% BSA (panel BSA), HRP anti-VHH detection
T3 construct: also called bovine serum albumin, negative control coating
T3 sequence (P02769 25-607 limits assumed): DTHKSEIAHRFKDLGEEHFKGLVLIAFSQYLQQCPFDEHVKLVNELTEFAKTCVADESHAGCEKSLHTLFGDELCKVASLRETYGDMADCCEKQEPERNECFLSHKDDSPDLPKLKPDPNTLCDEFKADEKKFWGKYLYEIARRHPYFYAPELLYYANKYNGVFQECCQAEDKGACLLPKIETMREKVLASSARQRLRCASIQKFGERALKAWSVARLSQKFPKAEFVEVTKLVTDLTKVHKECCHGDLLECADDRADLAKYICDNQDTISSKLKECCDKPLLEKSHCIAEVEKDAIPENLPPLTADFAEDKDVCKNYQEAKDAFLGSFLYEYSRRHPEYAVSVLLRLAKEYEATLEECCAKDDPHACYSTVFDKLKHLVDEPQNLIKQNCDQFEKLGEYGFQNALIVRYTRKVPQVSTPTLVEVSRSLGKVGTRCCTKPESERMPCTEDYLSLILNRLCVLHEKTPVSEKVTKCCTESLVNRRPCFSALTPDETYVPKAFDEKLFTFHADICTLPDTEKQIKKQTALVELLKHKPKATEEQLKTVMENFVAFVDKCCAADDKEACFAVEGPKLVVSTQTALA
Excerpt: FIG. 1: ELISA showing binding of all different bispecific VHHs to CD123, the Vγ9Vδ2 (GDT) TCR and BSA (as negative control). OD values are depicted; values are the mean of duplicate measurements; error bars indicate standard errors of the mean. A mono-valent anti-Vδ2 VHH was used as control for the TCR staining (“TCR control”) and a commercially available anti-CD123 antibody (“anti-CD123”) was used as control for the CD123 antigen coatings. “No AB” indicates a negative control without primary antibody.
Recombinant, purified CD123 antigen (extra-cellular domain; Sino Biological), or an Fc-fusion of the CD123 antigen (Bio-Techne/R&D Systems) was coated to the wells of an ELISA plate (Greiner) in PBS at a concentration of 2 μg/ml. As a negative control, wells were coated with 1% (w/v) BSA. An in-house designed, produced and purified recombinant form of the extra-cellular domains of the human Vγ9 and Vδ2 TCR chains fused to a human Fc was also coated as antigen at 2 μg/ml. After coating and blocking of the wells with 2% (w/v) BSA, bispecific VHH proteins were tested for binding at a saturating concentration of 50 nM and bound VHH was detected using an HRP-labeled anti-VHH antibody (Genscript) and staining using 3,3′,5,5′-tetramethylbenzidine (TMB)/H2O2.

[5] = biological target: T1, recombinant purified CD123-Fc fusion …; experiment: BLI, CD123-Fc on anti-human IgG Fc capture sensors, Octet Red96e, two measurements
Description: To determine the kinetics of binding of 1D2-5C8var1 to CD123, recombinant purified CD123-Fc fusion protein (Bio-Techne/R&D Systems) was loaded to a density of 1nm onto anti-human IgG Fc Capture sensors (using a concentration of 5 μg/ml) for an Octet Red96e (Sartorius) instrument. Different sensors were then dipped in different concentrations of 1D2-5C8var1; dilutions were made in 10× kinetic buffer (10×KB) provided by the supplier. From the obtained sensorgrams, the kinetic association- and dissociation rate constants were determined by curve fitting.
The latter is depicted as straight lines in the figure. This was used to determine the kinetic association- and dissociation rate constants and thereby the affinity of the anti-CD123 VHH 1D2.

[6] = biological target: T2, human CD123 expressed on cells; experiment: flow cytometry titration on 293F cells transiently expressing CD123, anti-VHH detection
Description: (§2) FIG. 3: Determination of the apparent affinity of 1D2-5C8var1 for binding to CD123 using flow cytometry. […] The geometric mean of the fluorescence intensity is plotted as a function of the antibody concentration used. The EC50 value was determined by curve fitting.
(§3) Expression constructs for human CD123 and for the common β chain of the receptor (CD131) were purchased from Invivogen. Plasmids were transformed to chemically competent DH5α bacteria and a single colony growing on selective medium was used to inoculate a 50 ml culture to amplify both constructs. […] Either plasmid alone, or a mix of the two plasmids was used for transfection. As negative control, untransfected cells were also used for flow cytometry. A day after transfection, cells were used to test the binding of the bispecific VHH using staining in FACS. Briefly, binding of a saturating concentration of 100 nM bispecific VHH to transfected cells was detected with an AF647-labeled anti-VHH (Genscript) antibody and staining was visualized using a FACS Celesta (Becton and Dickinson).
(§4) The former cells (expressing CD131) were used as negative control.

[7] = biological target: T4, human CD131 (common β chain of the IL3 receptor) expressed on 293F cells (human, UniProt P32927 17-897); experiment: flow cytometry on 293F cells transiently expressing CD131, AF647-labeled anti-VHH detection
T4 sequence: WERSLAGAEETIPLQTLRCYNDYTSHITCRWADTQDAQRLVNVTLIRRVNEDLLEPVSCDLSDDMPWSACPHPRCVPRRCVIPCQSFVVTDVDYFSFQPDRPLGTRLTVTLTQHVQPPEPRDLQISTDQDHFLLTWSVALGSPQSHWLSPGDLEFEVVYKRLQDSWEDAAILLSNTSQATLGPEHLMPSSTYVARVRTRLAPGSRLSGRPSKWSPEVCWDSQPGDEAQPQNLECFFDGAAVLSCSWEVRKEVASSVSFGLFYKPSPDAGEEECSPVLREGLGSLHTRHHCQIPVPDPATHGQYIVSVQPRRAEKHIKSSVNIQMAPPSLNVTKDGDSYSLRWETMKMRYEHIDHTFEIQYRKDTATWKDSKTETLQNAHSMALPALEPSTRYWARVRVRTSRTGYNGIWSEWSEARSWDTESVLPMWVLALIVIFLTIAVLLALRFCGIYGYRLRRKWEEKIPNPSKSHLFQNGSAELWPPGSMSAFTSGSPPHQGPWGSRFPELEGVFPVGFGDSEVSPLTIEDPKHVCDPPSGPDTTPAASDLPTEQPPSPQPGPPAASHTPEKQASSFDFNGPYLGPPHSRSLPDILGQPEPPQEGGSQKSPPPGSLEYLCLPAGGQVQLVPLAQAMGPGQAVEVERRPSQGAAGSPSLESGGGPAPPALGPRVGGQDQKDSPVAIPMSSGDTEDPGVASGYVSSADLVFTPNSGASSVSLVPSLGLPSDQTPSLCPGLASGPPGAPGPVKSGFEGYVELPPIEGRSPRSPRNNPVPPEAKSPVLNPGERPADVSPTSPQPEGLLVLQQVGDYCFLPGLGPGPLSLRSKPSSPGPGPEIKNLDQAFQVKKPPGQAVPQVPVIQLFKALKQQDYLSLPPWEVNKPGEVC
Description: as §3

[8] = biological target: human CD123 co-expressed with CD131 on 293F cells (human, UniProt P26951 19-378; P32927 17-897); experiment: flow cytometry titration on 293F cells transiently expressing CD123 and CD131, anti-VHH detection
Description: as §2, §3, §4

[9] = biological target: T2, human CD123 expressed on cells; experiment: flow cytometry titration on 293F cells transiently expressing CD123; apparent affinity, EC50 by curve fitting
[10] = biological target: T1, recombinant purified CD123-Fc fusion …; experiment: BLI, CD123-Fc on anti-human IgG Fc capture sensors; SD 0.5
Description: as §1

[11] = biological target: T1, recombinant purified CD123-Fc fusion …; experiment: BLI, CD123-Fc on anti-human IgG Fc capture sensors; SD 1.5
Description: as §1

[12] = biological target: T1, recombinant purified CD123-Fc fusion …; experiment: BLI, CD123-Fc on anti-human IgG Fc capture sensors; SD 0.4
Description: as §1

B1: humanized 1D2-5C8var1 variant with 1D2 var3 (SEQ ID NO:27) (bispecific antibody)
chain: EVQLVESGGGLVQPGGSLRLSCAASGRTASSYVMSWFRQAPGKEREWVAVINWNGDSTYYADSVKGRFTISRDNSKNTVYLQMNSLRAEDTAVYYCAADTRREWYRDGYWGPPARYEYDYRGQGTLVTVSSGGGGSEVQLLESGGGSVQPGGSLRLSCAASGRPFSNYAMSWFRQAPGKEREFVSAISWSGGSTSYADSVKGRFTISRDNSKNTLYLQMNSLRAEDTAVYYCAAQFSGADYGFGRLGIRGYEYDYWGQGTQVTVSSAAAEPEA
notes: See note of m19
Kd [1]: 14.9 nM

B2: humanized 1D2-5C8var1 variant with 1D2 var7 (SEQ ID NO:31) (bispecific antibody)
chain: B1 chain with F37V, E44G, R45L, A49S, V79L
notes: See note of m19
binding result [2]: no binding (tested: 50 nM (highest concentration tested))

B5: humanized 1D2-5C8var1 variant with 1D2 var5 (SEQ ID NO:29) (bispecific antibody)
chain: B1 chain with W47F
notes: See note of m19
Kd [11]: 7.7 nM

B6: humanized 1D2-5C8var1 variant with 1D2 var1 (SEQ ID NO:25) (bispecific antibody)
chain: B1 chain with S35G, W47F, A49S, V79L, L126Q
Kd [12]: 7.2 nM

Further lines, with some results ahead:

EC50 of T cell activation and lysis of primary AML blasts [3]: < 0.001 nM
EC50 of THP-1 target cell lysis by Vγ9Vδ2 T cells [3]: 1000 nM
EC50 of THP-1 target cell lysis by Vγ9Vδ2 T cells, 24 h [3]: 0.001 to 0.003 nM
Kd [4]: 3.1 nM
Kd [5]: 3 to 5 nM and 5 nM
EC50 (read off the curve) [6]: ~3 nM
EC50 (read off the curve) [8]: ~3 nM
EC50 [9]: ~3 nM
B3: 1D2-5C8var1 bispecific VHH (bispecific antibody)
chain: B1 chain with P14A, S35G, W47F, A61T, T69A, S75A, R87K, A88P, L126Q
notes: Orientation N-term-anti-CD123 VHH-linker-anti-Vδ2 VHH-C-tag; also called parental 1D2
EC50 for cytotoxicity, C1R-neo target cell lysis by Vγ9Vδ2 T cells, 24 h [3]: 0.001 to 0.002 nM
binding result (BSA): no binding (tested: 50 nM (single concentration))
binding result [7]: no binding (tested: 100 nM (single concentration))

Kd [10]: 2.6 nM
B4: humanized 1D2-5C8var1 variant with 1D2 var9 (SEQ ID NO:33) (bispecific antibody)
chain: B1 chain with P14A, S35G, A61T, T69A, S75A, L126Q
notes: See note of m19

Source: patent US20240141071A1 (LAVA THERAPEUTICS N V, published 2024)
